Measurements: the DeepSol protein solubility set

Experiment: soluble on expression in E. coli; label from the status in PepcDB or PDB records

Question: For “STFVAKDGTQIYFKDWGSGKPVLFSHGWLLDADMWEYQMEYLSSRGYRTIAFDRRGFGRSDQPWTGNDYDTFADDIAQLIEHLDLKEVTLVGFSMGGGDVARYIARHGSARVAGLVLLGAVTPLFGQKPDYPQGVPLDVFARFKTELLKDRAQFISDFNAPFYGINKGQVVSQGVQTQTLQIALLASLKATVDCVTAFAETDFRPDMAKIDVPTLVIHGDGDQIVPFETTGKVAAELIKGAELKVYKDAPHGFAVTHAQQLNEDLLAFLKRGSHHHHHH”, which “soluble on expression in E. coli” value is on record?
Answer: Its value is “soluble”.

Question: For “MAHHHHHHMLFPTACPDLIAREHLFNTLLNPVVYRWMWGRLRSCFSDSEVMAYTNNLSCVSHSVVCELVNKYPHLHQHVFAGPVTVLNERKEAAVTAHAEPLMVDPVGWTRALAEVCRRDYDVQFALGERLEDAVTYLKYDVESTRSIRVSKPDPSHPEQRLFASEGYDVVILAAGASTGTMTLPNSRLPVLGLSGLSAVVQQPSGALKDAVWSLFQCRPHRSPAAAASSSSPEVDAPSSHEGVADPLARPAPGTLALLSSHCSPVWLHVAQ”, which “soluble on expression in E. coli” value is on record?
Answer: The value was “soluble”.

Question: Which “soluble on expression in E. coli” value does the source give for “MTKKDKKAKGPKMSTITTKSGESLKVFEDLHDFETYLKGETEDQEFDHVHCQLKYYPPFVLHDAHDDPEKIKETANSHSKKFVRHLHQHVEKHLLKDIKTAINKPELKFHDKKKQESFDRIVWNYGEETELNAKKFKVSVEVVCKHDGAMVDVDYKTEPLQPLI” here?
Answer: The value was “soluble”.

Question: For “SLTTTEVVMENVTAFWEEGGTPVLKDINFKIERGQLLAVAGSTGAGKTSLLMMIMGELEPSEGKIKHSGRISFCSQFSWIMPGTIKENIIFGVSYDEYRYRSVIKACQLEEDISKFAEKDNIVLGEGGITLSGGQRARISLARAVYKDADLYLLDSPFGYLDVLTEKEIFESCVCKLMANKTRILVTSKMEHLKKADKILILHEGSSYFYGTFSELQNLQPDFSSKLGPSAQLKKKLQALKKKNAQLKWKLQALKKKLAQ”, which “soluble on expression in E. coli” value is on record?
Answer: Its value is “soluble”.

Question: For “IINGEDCSPHSQPWQAALVMENELFCSGVLVHPQWVLSAAHCFQNSYTIGLGLHSLEADQEPGSQMVEASLSVRHPEYNRPLLANDLMLIKLDESVSESDTIRSISIASQCPTAGNSCLVSGWGLLANGRMPTVLQCVNVSVVSEEVCSKLYDPLYHPSMFCAGGGQDQKDSCNGDSGGPLICNGYLQGLVSFGKAPCGQVGVPGVYTNLCKFTEWIEKTVQA”, which “soluble on expression in E. coli” value is on record?
Answer: Its value is “soluble”.

Question: For “MGSDKIHHHHHHMENHTDIETLLTKYFEGNTTPPENEQIEAWLNADEEHLRIAKQLNTLYLAVDTQHITKKIDTEKALDKVKSRTKVRNLSWWGWTQRIAAILSVPLLIGVLALYPDRQQPVVTAQMVEIKTNAGMTTSVLLPDSTVVHLNSESSLRYPTFFAGDVRQVELNGEAYFDVTQHPRKRFIVSTPHHSQVEVYGTSFNVEAYGNETPISTTLIEGSVGFIYKNSKGKFQKSMLSPRQKLVYSPQTGDIKCYATSGESEISWKDGKLIFNDTPLDEVLHMLGKRFNVEFVLSNKGLKGCSFTGTFTHQRLERIMEYFRISSHIRWRYIDSADIKTEKLKIEVY”, which “soluble on expression in E. coli” value is on record?
Answer: Its value is “not soluble”.

Question: For “GPGSMADILKSVKRIVVKVGSSILVDNQEIAAHRIEALCKFIADLQTKYEVILVTSGAVAAGYTQKEMDKAYVPNKQALASMGQPLLMHMYYTQLQKHGILCAQMLLAAYDLDSRKRTMNAHNTIEVLISHKVIPIINENDATALHELVFGDNDRLSALVAHHFKADLLVILSDIDGYYTENPRASTDAKIRSVVHELSPDDLVAEATPNNPFATGGIVTKLQAAQFLLERGGKMYLSSGFHLEKAREFLFGGSHEIGTLFYPRGSSS”, which “soluble on expression in E. coli” value is on record?
Answer: The value was “soluble”.

Question: For “SKLLENSSFEAINSQLTVETGDAHIIGRIESYSCKMAGDDKHMFKQFCQEGQPHVLEALSPPQTSGLSPSRLSKSQGGEEEGPLSDKCSRKTLFYLIATLNESFRPDYDFSTARSHEFSREPSLSWVVNAVNCSLFSAVREDFKDLKPQLWNAVDEEICLAECDIYSYNPDLDSDPFGEDGSLWSFNYFFYNKRLKRIVFFSCRSISGSTYTPSEAGNELDMELGEEEVEEESRSRGSGAEETSTMEEDRVPVICI”, which “soluble on expression in E. coli” value is on record?
Answer: Its value is “soluble”.

Question: For “MAHHHHHHMSVPKAALMQIFDLYDTDRAGWIPTKRIPYVLRTCGMISTQTEMETLLHDHFASRDTVTRSGFQKFLEQKDILKAEDFSSEKELATAFQVFDSRESGALTSDEVLTILTRMNEKIDVDAYHRVMDGLELNEQGMVEFAKLAAHMLRSANEYKLTVRQVLEELAE”, which “soluble on expression in E. coli” value is on record?
Answer: Its value is “soluble”.

Question: For “MSLTLDELDSHLFKCADIIRDAVDPTDYKEYILPLVFYKAISDEYEQEREEIVEEYGEDFADNANLYDVPIVPEGHRWNDLRQESENVDEAINNAFTEFTQANPDLSGIFNANFMEAGGLTDDRLIKLVEHLSTYDLDRDSVPPDMLGEAYMDLVRHFAEEEGKSGGQFFTPPHIVQLCVRLVDDFADGMTFHDPTVGSGGMLTEAAKYYREAQGGDPSKLTFTGQEINPDIAAIARMNLSLHTLNGEIERGDSLASPGFTDGDDLERFDRVLANFPFSADWAKDDLQDDQYGRFDWHTKLPRADRGDYAFIMHIAEQLKEPDCGDESGGKAAIVIPHGVLFRKHEQRYRQPMLENDLVEAIVGLPENLFQNNSIPSAILVLNTDKPADREGEVQFIHAADEAFYEELSNQNELTDDGLDHIVENFDDWTTEERVSRTVGIEEIEENDFNLNIALYVDTTEPEEDIDVNEELAELRELQAEREEIESRMTEHMEALQYE”, which “soluble on expression in E. coli” value is on record?
Answer: The value was “soluble”.

Question: With “MAHHHHHHMDAERGCRQCGQQGHSASQCRIKKYLCRDCGGMHDTRDCIFSHVGEDWYEFYDPKTRHVYYANSDESQIQWNPPTHELDTIYWYCSRCQVMISAKFRECLLCHSIRPESKQQETLTTDSNSDSSSSSSTSSSSSSTDTSCISRSSSSSGSASSSDSSSNDDDKRSAAGRLRDRAP” as the sequence, how does the “soluble on expression in E. coli” value read?
Answer: The value was “soluble”.

Question: Which “soluble on expression in E. coli” value does the source give for “MFQQQKDWETRENAFAAFTMGPLTDFWRQRDEAEFTGVDDIPVRFVRFRAQHHDRVVVICPGRIESYVKYAELAYDLFHLGFDVLIIDHRGQGRSGRLLADPHLGHVNRFNDYVDDLAAFWQQEVQPGPWRKRYILAHSMGGAISTLFLQRHPGVCDAIALTAPMFGIVIRMPSFMARQILNWAEAHPRFRDGYAIGTGRWRALPFAINVLTHSRQRYRRNLRFYADDPTIRVGGPTYHWVRESILAGEQVLAGAGDDATPTLLLQAEEERVVDNRIHDRFCELRTAAGHPVEGGRPLVIKGAYHEILFEKDAMRSVALHAIVDFFNRHNSPSGNRSTEV” here?
Answer: Its value is “soluble”.

Question: Which “soluble on expression in E. coli” value does the source give for “MSLTFSILARDPNNGRFGVAVATCHLAVGSTVPHIRSGVGAVATQAHTNPYLGICGLERLEHHADAQDVLNSLLLDDPQRDWRQFHLIDLDGRTACWTGVECGGWAGHRHHPNLSVAGNCLAGEVVLEAMEQTFLTSDPNWKLGRRLMTALQAGEQAGGDQRASSCTSAALQVSGEAAFPLLDLRVDFRSGAVEELMELYERSQDRWAQQWRDELLELPMLNRLVAEGHHHHHH” here?
Answer: Its value is “soluble”.

Question: For “MECETDEQKQGSDENMSECETSSVCSSSDTGLFTNDEGRQGDDEQSDWFYEGECVPGFTVPNLLPKWAPDHCSEVERMDSGLDKFSDSTFLLPSRPAQRGYHTRLNRLPGAAARCLRKGRRRLVGKETSINTLGTERISHIISDPRQKDFWLPSAGKRERNQFNPLSPLYSLDVLADASHRRCSPAHCSARQANVHWGPPCSRVIKRKRKPVATASLSSPSAVHMDAVEPTTPASQAPKSPSSEWLVRTSAAEKATDATTATFFKMPQEKSPGYSLEHHHHHH”, which “soluble on expression in E. coli” value is on record?
Answer: Its value is “soluble”.

Question: Which “soluble on expression in E. coli” value does the source give for “MSLTHCKNQHCGGELGDYTGYIESPNYPGDYPANAECVWHIAPPPKRRILIVVPEIFLPIEDECGDVLVMRKSASPTSITTYETCQTYERPIAFTSRSRKLWIQFKSNEGNSGKGFQVPYVTYDEDYQQLIEDIVRDGRLYASENHQEILKDKKLIKALFDVLAHPQNYFKYTAQESKEMFPRSFIKLLRSKVSRFLRPYKEGHHHHHH” here?
Answer: The value was “not soluble”.

Question: Which “soluble on expression in E. coli” value does the source give for “MSEWASEDINAPSLLTGNPALQPQTGGILNIPANHQRIFTLFFTCRSQTNGDVVDQYAVEDRQQRLESRLLALKPSAQRNKQMCGECLGGVILTALFDPRSQAM” here?
Answer: The value was “not soluble”.

Question: For “MSQSSDASEKEKPKEKKSQEELEKELDKELKKGGEPKTKKDDQIHKIGETFKAGHTNFTVNKVDRVQKGEYMNVGGAVNEETKTIKDDEERLIIEVTMENIGEDSISYNFIGFDLRDKNDQSVRPVFSIEEKGRILMGGTLVSGKKVTGVLSYVIPKGEQKHYTLVYNPFLADTNSSNTEERVKDDIDYLVKLDLEHHHHHH”, which “soluble on expression in E. coli” value is on record?
Answer: The value was “soluble”.

Question: Which “soluble on expression in E. coli” value does the source give for “MADIQGEDLESLYGYAKQLFDGGEIAAARNVYQLLSTLDHWNFDYLLALGLCHQRLGAHNEAVVCFGRAGLIKVDDPRAAFYAGISYRLDGNAEYASKAFKAAINWCGEQIDYQAIKASAVDMLALQQEEVPLEHHHHHH” here?
Answer: The value was “soluble”.

Question: Which “soluble on expression in E. coli” value does the source give for “MLQKPKSVKLRALRSPRKFGVAGRSCQEVLRKGCLRFQLPERGSRLCLYEDGTELTEDYFPSVPDNAELVLLTLGQAWQGYVSDIRRFLSAFHEPQVGLIQAAQQLLCDEQAPQRQRLLADLLHNVSQNIAAETRAEDPPWFEGLESRFQSKSGYLRYSCESRIRSYLREVSSYPSTVGAEAQEEFLRVLGSMCQRLRSMQYNGSYFDRGAKGGSRLCTPEGWFSCQGPFDMDSCLSRHSINPYSNRESRILFSTWNLDHIIEKKRTIIPTLVEAIKEQDGREVDWEYFYGLLFTSENLKLVHIVCHKKTTHKLNCDPSRIYKPQTRLKRKQPVRKRQLEHHHHHH” here?
Answer: Its value is “not soluble”.

Question: For “MAHHHHHHMNSGYPGPSGITVGSPGLPPGSLGSPFPEQMTSAHSSDGMQGSNASQVPLTIHADVDQHSKSHSPTLTSGVEVLFATHQPPVAGVNAPWDEDDDWSTPGAPAQHPASVGAPAKPPLPPGNNAPPPILIAEQMNPGSPAEPHPTPVAMSPPPSSDGFIASSSRAGSPNCPPTPLEKPSAANVAKVDALMKQIASRTAAMDAATKEKEMKIVTAAQEYLKALMAKRGEEVMNAKAIHKEEQQVGAEKINEHKKSGDVWSAVGLLVDLQKPNQYSRSTEQMRTVLSALNATPAKK”, which “soluble on expression in E. coli” value is on record?
Answer: Its value is “soluble”.

Question: Which “soluble on expression in E. coli” value does the source give for “GEERKCLQTHRVTVHGVPGPEPFTVFTINGGTKAKQLLQQILTNEQDIKPVTTDYFLMEEKYFISKEKNECRKQPFQRAIGPEEEIMQILSSWFPEEGYMGRIVLKTQQE” here?
Answer: Its value is “soluble”.

Question: With “MGSDKIHHHHHHMRCFIGIDLGSTTTKAVVMDENLQILGRGITNSRSNYDTAAAVSKQEALIDTRLTLFRRALGGVPEVAGKVDDILSDLERNFRHVQFLEQLEDLQQTCIANIKGPRFAGREKTVIEALEGTFSRLRDSSAKQYAPGVKRKSDFFRDLAGAEFMSHGEAVCKEAGLGFDLILNVYDKSIIEVENRPPSGDMEGKFVRALEKGTMTGSSILAPVQSALAIPLEETYVVGTGYGRVRLPFPKEHIRSEILCHGLGAHMMYPETRTVLDIGGQDTKGIQVDPVGIVENFQMNDRCAAGCGRYLGYIADEMNMGLHELGPLAMKSNKQVRINSTCTVFAGAELRDRLALGEKREDILAGLHRAIILRAMSILSRAGGVKDQFTFTGGVAKNEAAVRELRKLIKENYGDVTINIDPDSIYTGALGGATFAVRAVVN” as the sequence, how does the “soluble on expression in E. coli” value read?
Answer: The value was “not soluble”.

Question: For “QIVDATEALMHDQNSQRITLNMVNSLALHWWIPRMPRLQTYAPQLDVRLSNLSGRFNLEQEGVDAALVHGNPEEWQDYYCEKLSEDELVLVCSPDLIDHSNPVNLSDILKTYPLIEVTNERRKHDWQVWSDATGVARPKNKKPITFNMSIQAVQATTRRLGVLVTHRLFVKDDIKYGQLIELGEPVINPNQQLYFVCPPHKLKQESFHLLRSWLKQEFA”, which “soluble on expression in E. coli” value is on record?
Answer: Its value is “soluble”.
